Where no end group is shown, it is not given here.

This experiment has as its target T1, Aβ monomers on the SPR chip: biotinylated Aβ 11–28 (Homo sapiens (from His13), UniProt P05067, also: biotin, position not given here).
T1 construct: amyloid-β peptide, residues 11-28; the methods name only 11–28; also called monomer Aβ chips
T1 chain: EVHHQKLVFFAEDVGSNK
Nature of the experiment: SPR; BIAcore T200, single-cycle kinetics; biotinylated Aβ (11–28 or oligomeric 1–42) captured on streptavidin-coupled CM5 chip (100–200 RU); antibody as analyte 0.8–500 nM in HBS-P pH 7.4, 0.15 M NaCl; one-to-one Langmuir model. The note with it: both partners purified. (In general: In SPR one partner is held on a chip, and binding of the other changes the refractive index at the surface.)

B1: Crenezumab, fully humanized anti-Aβ monoclonal IgG4 (antibody, V domains shown)
VH: EVQLVESGGGLVQPGGSLRLSCAASGFTFSSYGMSWVRQAPGKGLELVASINSNGGSTYYPDSVKGRFTISRDNAKNSLYLQMNSLRAEDTAVYYCASGDYWGQGTTVTVSS
VL: DIVMTQSPLSLPVTPGEPASISCRSSQSLVYSNGDTYLHWYLQKPGQSPQLLIYKVSNRFSGVPDRFSGSGSGTDFTLKISRVEAEDVGVYYCSQSTHVPWTFGQGTKVEIK
notes: crenezumab VH: as the VH of the heavy chain of m1 (PDB 5KNA / 5KMV) but without the T108L change; IgG4 heavy chain constant region; as the light chain of m1 (unaltered crenezumab light chain); IgG4; also called full-length IgG4; copies: 2 + 2
For orientation: Kd means the free concentration of one partner at which half of the binding sites on the other are occupied at equilibrium, for simple one-to-one binding. For B1, the Kd was in the range of 3 to 5 nM.

The values are drawn from PMC5171940, “Structure of Crenezumab Complex with Aβ Shows Loss of β-Hairpin” (Scientific Reports, 2016).
